These results are taken from a protein production outcome set (Wang et al. 2014).
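Also: failed if final PepcDB status was selected cloned or expressed and not failed if soluble or beyond.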

A short description of this data set: label from the status in PepcDB records.
On to “MRNFFKKMVVLSVGCLTLPLWAQPHREGVQQKLQSLSVEQKIDLLCARYPGVPQEGLAKYDWWSECLHGVARAGKATVFPKPIGMGSTWDAELIHRIGIAIGDEARAKHHQDVREHGYSDRHYGLTFFSPTLNIARDPRWGRTTECFSEDPLLTSDMGVSFIKGMQGDDPYYLKTVATAKHFVANNEENRRLGGSAIVDEVSLREYYFPAFRDAVVRGYVKSIMGAYNALNGIPCCANSMLLTDVLRKEWGFEGVVISDGSAIDKLYTHHKYVPNLEEGAALALRAGCDMSLRDEYRPGLKKAYHKGLITEHDLNVAVARVLDLRARLGLDKGTDQGNPYKNTPYSVVECERHQQLALEAAEKSMILLKNEGVLPLKPDASKRKLNIALIGDAFKSVYYGDYSGMPEYNRTLLEAFTHDAGRLANLTWMGERSQEVLIPSHLLTQTADQAYDGILGFTARYYEGTKVGKEAALTRQDLTLDFKLAEDAALKQKEVRAASWTSTLKAPQSGRYMFYLEASGRGKLFINGKQMLSKYNGHRFKTSCEVVLKEGEEYKLKVDCEELNTQMPIRLTWTPPFKGTDDTPAKLAKRSDVAILFVRDDNSSEGRDRKNLNLSDAHIELIKEVCAANPKTILLLGGGSTLALKDIIEGPAALLNVWIAGQGEAQAISNILLGKTNPSGKTAVTFCADESELPALDDYDITHGRSYQYFKGKELFPFGFGLSYTNYQYGKPKMKHRKLQQGDKVEVSAEIRNTGKYAGEEVVQCYLSSPTWQKQGLKQKLVGYQRVSLKPGQAKTVKFCIQEEQLKRWNKDKDEWGLNGNQYNLSVVPCSNQQNAVSFTYR”, for which the protein production result is listed as “failed”.

Turning to “MRNKLLFLALPLLFGLQASAQHTQAFQDTTLTDEQRVEHLLSILTLDEKINLLSTDLGVPRLNIPRCGHYEGLHGLTLGGPAMWGGRQRTEDGKVVPTDCPTTIFPQSYGLGSTWDTDLVQKVAEQAAEEARYYMQTTGNKRHALVMRAPNADLARDPRWGRTEESFGEDAFLTAQLTIASVRGLQGNHPRYWKTASLMKHFLANSNEDGRDSTSSDFDTRLFHEYYAYPFYKGITEGGSRAFMAAYNSWNGIPMSIHPCLEEITRKQWGNNGIICTDGGALKLLIEAHKSFPSFAEGAAAVVKATTGQFLDAYVPYVKEALEKGLLTEVDIDKAIRGNIFVALKLGLLDGDNSRNPYLSIGKNSTETPPFMTAEARRLAREVTAKSVVLLKNKKLLPLDAGKLRKIAVIGPYSDKIVQDWYSGTPPYETTILSGIRNAVKEGTEIIHAEDNRMGQAEKAAAAADVAIVCVGNHPYGTRADWKFSPVPSDGREAVDRKSLMLPDEDLVKLVLKANPNTILVLVSSFPYTINWSQEHVPAIVHITHCSQEQGNGLADVLFGKVNPAGRTVQTWVKDITDLPDIMDYDIRNGRTYMYHQGPVLYPFGYGLSYSDFTYEKIESVKQDKKNIRVTVSVKNTSGRDGEEVVQLYASYPDSKVERPSKQLRAFRRIPIKAGETRKVTLTVPKEELGYWNEGKQMFVVEPGTVKLLIGASSEDIRLEGKIRL”, the protein production result is “failed”.

“MRNLIISAALVAASLFGMSAQAAEPIESGKQYVELTSAVPVAVPGKIEVIELFWYGCPHCYAFEPTINPWVEKLPSDVNFVRIPAMFGGPWDAHGQLFITLDTMGVEHKVHAAVFEAIQKGGKRLTDKNDMADFVATQGVNKDDFLKTFDSFAVKGKIAQYKELAKKYEVTGVPTMIVNGKYRFDLGSAGGPEKTLQVADQLIDKERAAAKAAK”: the protein production result is recorded as “failed”.

As for “MRNSCYTSSYRQPVSLVVEWVLIGGLAMQDKLHEIRVFENFQEELFETGHVIVTTEVVEKSLNYFGNAHGGYLFTLCDQVAGLVALSTGDYAVTLQSNINYLKAGHLSDQLKIEGLCVHNGKTTKLVEVLITNQEEKILTRATFTMYVTGSISE”, the protein production result is “failed”.

For “MRPAAARVLLGAFAFAVVADLASQALGSDTGHLLAKPLLMPLLAAYAAVRGGPRLLVVALLLGWAGDVLLLSDADPAFLAGMSSFAAGHVCYLVLFARHGRTRARGALLAGGYGLVLVTTVALLWPGLPAGLRVPVVGYSLLLTAMAYGATRLGPVAGLGGALFLLSDTLIATGVADWPQLPRPDFWIMLTYAAGQYLLVRGVTDTLGAPTAPAAAYGEVRSTTP”, the protein production entry is reported as “failed”.

On to “MRPAPSIVEVVAAIIIGSDGSFLLARRPEGKPYAGYWEFPGGKVNPEESLLRALKRELLEELGIHVKHAYPWITRTFTYPHARVRLHFYRVVEWHGEPHPHEDQELSWQFADNVSVEPLLPANAPVLRALALPPVYGITNAAEWGPQIAAARIGHALQKGLRLVQLREKGMRSKALDAFAREVTALAHHYGARILVNSGTGNESLCQELDMDGIHFTSADLMNLSKRPDVEWCAASCHNAEELFRAEQLEMDFAVLAPVLPTLSHPDSPVLGWRKLARIIHGSAIPVYALGGLQSEDLAIAWEHGAHGIALMRRIEQVRGTGQKA”, for which the protein production result is on record as “failed”.

For “MRPKVSVALATYNGEKYIEEQLESIIKQTRAPDELVICDDCSNDETINIITKKIKNAHFDVKLVSNDKNIGYVQNFSKALEMSSGDIVFLCDQDDVWLSDKIEFIINKFNTRPDIQLLIHDVDYCKEDLTPIGQTKLQRMESNFDIESDYVVGMATAVRRSFLVHCLPVPSAPEVTHDEWLHDCARVLGCKGIVREVLALYRRHSLNVTAPSRLNVDFVTTRHYFGNESLAFLKLFRMETDLGSPDISPLVQWLDSRKMVLLDNGFSSEDRINTFIQYEEKRLRARNSRQSILRLDRWKRLFPIYDLYRSGGYHYYCGWKSALKDLLRTYALEHHHHHH”, the protein production entry is on record as “not failed”.

Take “MRPLAAILALPILEIALFVTIGGAIGLLATLLIIFGTAALGVFLLRRQGVEMQAALQMPRRMDPLALMADGAAVSLAAALLILPGFFTDTVGLLLLIPPVRRALIRRLGRNVQVRSTTWRGPVRDDAPIEADYHEVEPVRDPLAPPSQPPGSSGWTRH”: the protein production entry is reported as “failed”.

For the sequence “MRPPLIERYRNLLPVSEKTPVISLLEGSTPLIPLKGPEEARKKGIRLYAKYEGLNPTGSFKDRGMTLAVSKAVEGGAQAVACASTGNTAASAAAYAARAGILAIVVLPAGYVALGKVAQSLVHGARIVQVEGNFDDALRLTQKLTEAFPVALVNSVNPHRLEGQKTLAFEVVDELGDAPHYHALPVGNAGNITAHWMGYKAYHALGKAKRLPRMLGFQAAGAAPLVLGRPVERPETLATAIRIGNPASWQGAVRAKEESGGVIEAVTDEEILFAYRYLAREEGIFCEPASAAAMAGVFKLLREGRLEPESTVVLTLTGHGLKDPATAERVAELPPPVPARLEAVAAAAGLL”, the protein production result is listed as “not failed”.

“MRPSAEALRDRPRCGIRPSMDYYDLGRHGRPVTTSSPEAQRWFDRGLVWTYAFHHEEAVACFEAAVAADPDCAMAHWGIAHALGPNYNKPWDAFDTEELTRTVDRTHAAVERAHALAGRATPAERALIDALRARYPQASAVEDCSVWNAPYADGMRAVYELAPDDLDVAALYADALMNLTPWQLWDLRTGLPAEGARTLAAKEVLDRALAAEGGRDHPGVVHLYIHLMEMSPTPEAALAVADRLRGLVPDAGHLLHMPSHLEVLCGDYRRVVSDNEAAIAADEKCLARSGAMNFYTLYRAHNHHFKIYGAMFLGRYEVALDAAARLEASVPEALLRVESPPMADWLEAFLAMRVHVLIRFGRWTDILALPLPDDPRLYCVTTAMLHYARGVALSATGRVAEAETERDLFRAAVDRVPGSRTLFNNTCADILAIASAMLDGELEYRRGNHTAAFAALERSVELDDNLPYDEPWGWMQPTRHAYGALLLEQGRTAEAEAVYRADLGLDDTLPRPLQHPNNVWALHGLHECLVRLGRAGEVRIVAQQLRFAAALADVPVEASCFCRLGTAPAAGGDAGCCATGQ”: the protein production result is given as “failed”.

As for “MRPSAIVLAGGKEAWAERFGVGSKALVPYRGRPMVEWVLEALYAAGLSPVYVGENPGLVPAPALTLPDRGGLLENLEQALEHVEGRVLVATGDIPHLTEEAVRFVLDKAPEAALVYPIVPKEAVEARFPRTKRTYARLREGTFTGGNLLLLDKSLFRKALPLARRVVALRKRPLALARLVGWDVLLKLLLGRLSLAEVEARAQRILGVEARALVTPYPEVGVDVDREEDLVS”, the protein production result is given as “not failed”.

Turning to “MRPTARNLAPLLAVLCAPPALLAGCGHAEPRPRAAAQDRDGLSALWSYYRYTHVQGGRVAALDEGGVTTSEGQGYAMLRAVWMDDRATLDAVWRWTRENLAVREDRLLAWRWLDGKVKDRNAATDADQDVALALVLASRRFGDPRYLEAARPLLADIWAREVIRAGGRWLPTGGNWAPAERYPTLHVAYLAPYAYQVFADVDPERPWAELVESSYQVLRFLMIEKGLALPPERIWVDPRTGELLLARPGGQPDAFGYDAVPVYWRVALDARWFGRRGEAELRARLLRFPAEAFRDEGRLRERYTTSGRPLSELDGLPHLASVQALAQLEDPELARAMRASKLDALFDRALSGEATPYYLHNWLWFGRALEAGLLRRFDEPLAFLSSLDWGAFRDRFPLLPVALAVVLAPLARRLWPARAALVALALGLSIRYLAWRAGSTLNFVEPLGPALSLALLAAEAYALSTVALLVVQVGLRHRARPPEPPLGAGEPHPSVDVMVPIYSEPLDILDKTLAACAALRYPRKTIVVCDDSHREEVARLAAEHGARYLAGPRRHAKAGNLNAALARTDGELVVVFDTDHVPTAAFLERTVPCFRDPRLGVVQTPHHFYNPDVFQRALGAPASVPNEADLFNHAIQGGRDRWGGAFFVGSGAVFRREALASVGGFHLLSITEDIHTSQKLHAGGWRTRFVDEDLAAGLSAEDLASYVVQRRRWMLGCLQIFFRDNPLLQRGLPLRHRLGYLASLWYFFFPLARLVFFATPLAYLLFHLHPLFAELPVLLAYLVPHLVAAPLAASALVPGWPRLLWGGLYEGAVAFPLARATLDLLLPRRLGFKVTPKGVRSERRRFDLRTSAFTLAAAAVGLLAIAKGAAELWAFGIEVEAYAFNLAWAGANLVSVLLALLVAWERPQRREDERIRRRVPVRLEAPGLSLEASTLDLARGGAAVALPPGAALPAEVEVTFDGPEGLRLRARVAYVEPVDGAPRAGLAFQGVGAAEARALVRIAFSADGAHAGAHDGRSRWQAAMAWHLLAGLWRAVRPLRPRRRLGARRRTLRPLRLCGAGRACRALAVDASAGGLGLVAAGARGAIPAPGTALALLAPEGIGWARVVHARRILPGLWRLGLALQAEPVPGAEPHAYLAA”, the protein production entry was “failed”.

Consider “MRPVLLLCCLFLSATAQAEDCSPQTSVGSWCELPLAALHPTQQNVGLLQVEDDQAKLAGKKPKALERYLRKKEIPVVIGPGGRFYLTDRHHLSSALWRLDPKQGVPVKVIGRLPQASDFWEKMQENHWVWLHDARGAEIPPEALPDALAGLGDDPYRALAGYAEDENAFDKDRQSYFIEFHWARYFGERMHWRPISRATLPDDLKQALRLACEPAARELPGYRQDCPHLEHHHHHH”, for which the protein production result was “failed”.

With “MRQATMDFSSSSVFDQHKGDSSEEVDLTMVYQAASNGDVNSLTAVIREDPSILECCDSEGCTPLMHAVSGRQVDTVKLLLKMGANINTQDAYGRTSLCLATYLGWLEGCVSLLRNGAKHNIPDKNGRLPLHAATAEPDVRLLIVLLQQSSLSEINHQDTEGMTPLHWAAFHNRPQHTQMLLKKGADPTLVDKDFKTALHWAVQYGRSRVACQDVLGHAQGPGRASQETTISVSCQHALLGISNIYNKAGRITEASSQQLTSDFRTPLHWAAAAGKAECVQSLLDLGMDSNLRDINESTPLAYALYCGHTACVRLLSREGRAEPARPLPSQNSQPQKKEGRFSVLNQIFCKNKKEEQKAHQKEQSRARPKEEDTSEVNDIIATFDSVVDTNCQDQPGDQVDMVVFKKRTSENSKYLLPEKKSLARKGLPPIRTQSLPPITLGSNFLTASHGATSHAGLNSGLQHTAQRSQKSRSEQDLLNNRTGCQVSLDNPWKGDTRQAFSCKAWTVSSSDKLLDRMFTGQPGHQELSGPPHLPHLPNPSPGQGLQHLSPNRPKVRDFPFTRNSLAPLPDQKFLSGEPLRTNRVLPAIPSQRGHDPPAEESEWSSSPTHDEN”, the protein production result is given as “failed”.
